This data set is described as follows: soluble on expression in E. coli; label from the status in PepcDB or PDB records.
In the case of “GSHMAASATAAAVAAEVISVHSLEQWTMQIEEANTAKKLVVIDFTASWCGPSRIMAPVFADLAKKFPNAVFLKVDVDELKPIAEQFSVEAMPTFLFMKEGDVKDRVVGAIKEELTAKVGLHAAAQ”, the “soluble on expression in E. coli” value is listed as “soluble”. In the case of “MSLIENLWRGICIISASEDAFSAGETIKEKLKSFEIPVVHYRYKDAEIETIWKCYDAIVFVMALEGATRIVCKYAKSKTEDPAIVCIDDKINYVIPLLGGHWGANDIARELSVILNSTPIITTAAEIKGKLSIERIANILIAKIINPENIVKINAALLRDESICIDGIDVNVNFPENIKVNSEECSYIISLRGDKEYKDKIVVWLKPLKISIGIGSKKDVKMEEIRDGIYKVLERLNLKRERIGIIASIREEVKKIADEFNVRFRLVNEEEINNFMNPCLTPPSKTLIEVGLKGVAEISALIAGGRNSKLILRKIAISRNSTIAVATYEGHHHHHH” it was “soluble”. As to “SASRGKTETSKLKQNLEEQLDRLMQQLQDLEECREELDTDEYEETKKETLEQLSEFNDSLKKIMSGNMTLVDELSGMQLAIQAAISQAFKTPEVIRLFAKKQPGQLRTRLAEMDRDLMVGKLERDLYTQQKVEILTALRKLGEKLTADDEAFLSANAGAILSQFEKVSTDLGSGDKILALASFEVEKTKK”, the “soluble on expression in E. coli” value is “soluble”.

In the case of “MGSDKIHHHHHHMILMKSYYRLLGHYYLLLRFFKNLRDLGVSLLELENILGVIYWYLFKQKYSTRCRCCSELYINQTNINPYYFASACKLKKMGLPVEIRNSVFYYDGLEVYPTVIPYIARVIKYNWQVFNMKGNPMISFTVKNHDFKAVLLKGYEGLLQFYEQFILEQYGMFDYKDKTVIDIGGFIGDTALYFYSKEARKIVSFEPSKKNYTILIKNITLNNIKNVIPINAGVWDENTKGIITNPAPTAYRVKEESKGDVALVSILDIIDSYRPDIIKMDCEGCEYKVFEKLLETGYIYDVPEYVFEAHGNIKNELLSKLRSLDEFRLCVHSDLGNMAIVSLKKL”, the “soluble on expression in E. coli” value was “not soluble”. As to “MHHHHHHSSGVDLGTENLYFQSNAMELKDYYAILGVQPTDDLKTIKTAYRRLARKYHPDVSKENDAEAKFKDLAEAWEVLKDEQRRAEYDQLWQHRNDPGFGRQRQTHEQSYSQQDFDDIFSSMFGQQAHQRRRQHAARGHDLEIEVAVFLEETLAEQTRTISYNLPVYNVFGMIESETPKTLNVKIPAGVVDGQRIRLKGQGTPGENGGPNGDLWLVIHIAPHPLFDIVGHNLEIVLPLAPWEAALGAKVTVPTLKESILLTVPPGSQAGQRLRIKGKGLVSKTHTGDLFAVIKIVMPTKPDEKARELWQQLAAAEASFDPRKTWGKA”, the “soluble on expression in E. coli” value was “soluble”. In the case of “MGSDKIHHHHHHMIPIVDSRIGAYLDGLLPEADPVVAAMEQIARERNIPIVDRQTGRLLYLLARIKQPQLVVVPGDGLGCASWWFARAISISSRVVMIDPDRDNVEHARRMLHDNGLIDRVELQVGDPLGIAAGQRDIDILFMDCDVFNGADVLERMNRCLAKNALLIAVNALRRGSVAESHEDPETAALREFNHHLSRRRDFFTTIVPVGNGVLLGYRLS” it was “not soluble”; in that of “MDQFISAFLKSASENNFQQLAKEFLPQYSALISKAGGMLSPETLTGIHKALQEGNLSDVMSQIQKAISAAENAILEVAVIGQSGTGKSSFINALRGLGHEADESADVGTVETTMCKTPYQHPKYPKVIFWDLPGTGTPNFHTDTYLDQVGFANYDFFIIISSSRFSLNDALLAQKIKDAGKKFYFVRTKVDSDLYNEQKAKPIAFKKEKVLQQIRDYCVTNLIKTGVTEPRIFLISNLDLGTFDFPELEETLLKELPGHKRHMFALLLPNISDASIELKKHFLREKIWLEALKSAAVSFIPFMTFFKGFDLPEQEQCLKDYRSYFGLDDQSIKEIAEKLGAPLADIKGELKCLDFWSLVKDNSIIAQATSAAEAFCAVKGGPESSAFQALKVYYRRTQFLNIVVDDAKHLLRKIETVNVA”, “soluble”; in that of “MGSDKIHHHHHHMTEGWDALDAELEQWAAAGLRLPLWWRDDDAVTPTDALTRLEAMATRLDLPVHLAVIPKAAEDALAQHVSQSSHLIPVVHGWAHVNHANPDKKTCEFPSTRPVDEALTDAEQGVERLKHLFGARLQPMFVPPWNRISPAMLPWLAGLGFAAISTYGPRKRTQAASGLVQINTHIDPIDWKGGRGLMPEAQILQKLVANLQARRSGQQDNAEPLGLLTHHLVHTDEVWEFCDTLLRRLLEGPAHPWRFNERIN”, “not soluble”. Under “MTTQQKKSSTRQGFKTGESIVYPAHGVGQIVAIEEQEVAGMKLELFVIDFEKDKMRLKVPVAKAVGIGMRKLSETDFVDRALKVVQGKARVKRTMWSRRAQEYDAKINSGDLISIAEVVRDLYRAENQPEQSYSERQLYEAALDRMAREIAAVNRMSETEAVRLVEANLNKGPKRGKAIEEDDAQDEAA” stands “not soluble”; under “MRYDVVIIGGGLAGLTCGIRLAEQGKRCAIVSAGQNALHFSSGALDLLSHLPDGQPVSQPLDALDELARQAPHHPYSRMGAAAVAALLPQVEALLERSNISLLGNHQQNHWRMTPLGKFRACWLSPADGVTRGLADSHFGDNPLIAGIEGFLDFQSRIVAGTLQTQGIAARSDELKLPVLDRLRQNPSEFRAVNIARLLDRPENRSALVEELSLLANGNDAIIMPACLGLDSPEIVSELADALGKPVLLLPTLPPSVLGLRLHQALSQRFRQLGGMVMPGDRAVRASLSSQEIAVHSHHHRDIPLRAKHAVLASGSFFSNGLVTQFDRVTEPVFGLDVRFAEQREGWSQQDVFAPQPYMQFGAIVDEHLHPRIAGETVNNLYAIGAVLEGFDPIVQGCGAGVSLLSALHVAEQILKEGNPLEHHHHHH”, “soluble”; under “MSLYEWLNALPKAELHLHLEGTLEPELLFALAERNRIALPWNDVETLRKAYAFNNLQEFLDLYYAGADVLRTEQDFYDLTWAYLQKCKAQNVVHVEPFFDPQTHTDRGIPFEVVLAGIRAALRDGEKLLGIRHGLILSFLRHLSEEQAQKTLDQALPFRDAFIAVGLDSSEVGHPPSKFQRVFDRARSEGFLTVAHAGEEGPPEYIWEALDLLKVERIDHGVRAFEDERLMRRLIDEQIPLTVCPLSNTKLCVFDDMSQHTILDMLERGVKVTVNSDDPAYFGGYVTENFHALQQSLGMTEEQARRLAQNSLDARLVKEGHHHHHH”, “soluble”. Regarding “MGWTCERVELLKKFWSEGLSASQIAAQLGGVSRNAVIGKVHRLKLPGRGKTAQGGGRVQKALVGVSSSPVRMRRTPSTVLPTNTASCSVGATALKVDVVVEDVTEVDLPEKSNVVVPISRQLNLLQLSENTCRWPVGDPLSPDFHFCGADSGENSPYCAFHAKIAFQPISERRRIRILEHHHHHH”, the “soluble on expression in E. coli” value was “not soluble”.

“MGSDKIHHHHHHMEVIRLDKVSLWRRTQEEFSYDLKKTLLSLIEGKYRKPAKKLVLDNVDLVVEKGDKIGIIGANGSGKSTLLKIISGILQPTTGTVRVRGQVAPLIELGAGFDAEISVMDNILLYGVLLGFSRAEMKERANSILEFAELQDYALVPVKGLSSGMVARLGFSIATDVQPNILILDEVLSVGDENFKNKCKQRIDNFWNGDATVLVVSHDLQFVKQYCNQLVWLSHGKIEFIGDAGEAIQNYLSTLTST”: the “soluble on expression in E. coli” value is “not soluble”. Under “MNDDLCYKLNYLARLILSKVNEKIKPHGVTQGQLPVLCCLHDAEGQTQAELCKNIQVEQPTMANTLRRMERDGLIFRTASDKDKRQSRVYITERTRPTVEALQEKRDEVVAAMVRHMSPEDLATFTRLLDVATKALENPETE” stands “not soluble”. Consider “MGSDKIHHHHHHHKKTFDYIFNKTEAITLEQSKLTLSKDITVLSFSDSSMVDRNSSIIKVDSGWIVYSKNSESSILSFTSDGQFSGYIGHRGNGPGEYTSVYDVVVNQKSKVLEVLSDGGIFCYTFGGDFLDKKEVTYPAFSFAIDDRQNYWFYVGNNTTYGDAKMICTDENIANVAYYLHQKSNMLPMVENNFGRNGEWLTFHESLNHDLYTIENGKLDLSYAMDFPNYKLPKKLHELSGMEVIEELQRSNYASIINYLENHDYIFLNVLLNNEGERIPEVYYWIISKNLQEEVIIKIDGGISAESYLFNTQYLSNDNKLYCLGYIWENKDVESFEENLNPSVVALEFNELFSKVR”, for which the “soluble on expression in E. coli” value is reported as “not soluble”.
